Source: publication PMC8764033, “Single-molecule analysis of specificity and multivalency in binding of short linear substrate motifs to the APC/C” (Nature Communications, 2022)

B1: Cdh1: APC/C activator subunit (protein, UniProt P53197 1-566, looked up)
APC/C activator protein CDH1: MSTNLNPFMNNTPSSSPLKGSESKRVSKRPISSSSSASLLSSPSRRSRPSTVYGDRYIPSRTDIDFNSIVSISSMASVPALNPSSTEDQVEYQKERQAHETYNTLLKNELFGEMLSKDTVGSESSIDRIKNTRPSTRGNVHAENTTRHGYELERVSTPPPEAAGLEEFSPHSTPVTPRRLFTSQQDEITRPSSNSVRGASLLTYQQRKGRRLSAASLLQSQFFDSMSPVRPDSKQLLLSPGKQFRQIAKVPYRVLDAPSLADDFYYSLIDWSSTDVLAVALGKSIFLTDNNTGDVVHLCDTENEYTSLSWIGAGSHLAVGQANGLVEIYDVMKRKCIRTLSGHIDRVACLSWNNHVLTSGSRDHRILHRDVRMPDPFFETIESHTQEVCGLKWNVADNKLASGGNDNVVHVYEGTSKSPILTFDEHKAAVKAMAWSPHKRGVLATGGGTADRRLKIWNVNTSIKMSDIDSGSQICNMVWSKNTNELVTSHGYSKYNLTLWDCNSMDPIAILKGHSFRVLHLTLSNDGTTVVSGAGDETLRYWKLFDKPKAKVQPNSLIFDAFNQIR
B2: securin: separase inhibitor securin, APC/C substrate protein (protein, UniProt P40316 1-373, looked up)
Securin: MMPANEDKENNIVYTGNESSGINFPQTPAHLLKRSHSNILKPPVRLDQLKRDANSNNGNTLKYIQGGKEVSPTKRLHTHAQQQGRLPLAAKDNNRSKSFIFPETSNQSKDADLPQLQNTLSIRKNDQLRKLSQISRSRSRANHNDLLSNSRKLQKYGSVLGYNALPKMKSLVLKDLADSGKNEESSDDDEGNEDSESKLGKKLQSALLKQDSSDGENELNGGLGLFNEQGGLQQLIKNSTKNEQKTKNDKSDKTDDYDIEIAPQRQEPLPYVPEGYSPFQQDDIEKLKTFNSPYKLDLEDEDDTPDKVDLLPLEQIDEEGEKDETECITRNQEEGAALPLLSKNFKEVAAVPTMELVYSEEGLDPEELEDLVT
B3: Clb5: yeast S-phase cyclin, APC/C substrate protein (protein, UniProt P30283 1-435, looked up)
S-phase entry cyclin-5: MGENHDHEQSIKRNSMIYNENERQLCNSNLKILQNKRALSKNDSSSKQQVQDSKPRRALTDVPVNNNPLSQNKRIVAGSKAAKVRREENIRPIVSAVQKRQIYNDRTAAEQEEEEEEEGEDDDAASIVNKKRRIDAEGVSEIVGWQDLDYVEKDDTAMVAEYSAEIFAFLYRRELETLPSHNYLLDKTSKYYLRPSMRTILVDWLVEVHEKFQCYPETLFLSINLMDRFLAKNKVTMNKLQLLAVTSLFIAAKFEEVNLPKLAEYAYITDGAASKNDIKNAEMFMLTSLEFNIGWPNPLNFLRRISKADDYDPVNRNIGKFILEYAYCCHQFIHLPPSTVSAMAMYIARRMTNRNKNELWNGTLQHYSGGIDPIHDEAFQSLCIDLVKDIASSKTHLDSLILKYKKPRYGSVYFQTFKWCTSEMHSNFQNLFNLK

Assays:
[1] = system: APC/C; details: purified yeast components, 30 min; 20 (Mizrak & Morgan, 2019); cited from earlier work
Source text: It is therefore unlikely that activator dissociation is occurring during our measurements of substrate dissociation from APC/C^Cdh1 or APC/C^Cdc20. || page 6: Cdh1 in Supplementary Figure 6. 2. Fig. 1b. List human peptide sequences used in this study. Now added to Supplementary Figure 6. 3. APC/C-Cdh1 interaction stability and life-time. The SMOR assay is dependent on a stable APC/C-Cdh1 interaction, longer than the dwell times of APC/C-activator-substrate complexes. Can the authors measure the dwell time of APC/C bound to activator? Excellent point.

[2] = Aggregation / background fluorescence in SMOR assay; type: physicochemical
Experimental: To capture dynamic protein–protein interactions, dye-labeled substrate diluted in buffer C + BSA was added to the chamber containing immobilized proteins. Interactions were imaged by TIRF microscopy as described below. For optimal signal-to-noise ratio, peptide concentration was no greater than 1 nM. Protein substrates included Hsl1 aa 667–872 and a C-terminal HaloTag followed by a TAP tag, and were produced by translation in rabbit reticulocyte lysates using TnT Quick Coupled Transcription/Translation System (Promega) (see Supplementary Table 5 for plasmids). Protein was purified with magnetic IgG beads and labeled on the bead with JF549 or JF646 dye so that unbound dye could be washed away. Purified dye-labeled protein was then cleaved from the beads using TEV protease. Before adding substrate to the reaction chamber, oxygen scavenging reagents were added (10 nM protocatechuate-3,4-dioxygenase, 2.5 mM protocatechuic acid, and 1 mM Trolox)[41]. A detailed description of the SMOR analysis pipeline is found in Supplementary Note 1.

[3] = system: APC/C; details: APC/C^Cdc20 vs APC/C^Cdh1; cited from earlier work
Source text: We find that the yeast securin ...

Molecule	dissociation from the APC/C (in words) [1]	aggregation / background (in words) [2]	processivity of ubiquitylation (in words) [3]
B1	dissociation from the APC/C was not detected in 30 min	–	–
B2	–	tendency to aggregate and create excessive background fluorescence	more processive than that with APC/C^Cdh1
B3	–	–	more processive than that with APC/C^Cdh1
